Results reported in patent publication US20050032689A1, “Methods for treatment or diagnosis of disease or disorders associated with an APB domain” (New York University, priority 1994, published 2005).

T1: binding of Shc 1-209 to the EGF receptor (Mus musculus, UniProt P98083)
T1 construct: we generated Shc 1-209 as a GST fusion protein; made in house; host or cells: bacteria (pGSTag vector)
T1 sequence (P98083 111-319): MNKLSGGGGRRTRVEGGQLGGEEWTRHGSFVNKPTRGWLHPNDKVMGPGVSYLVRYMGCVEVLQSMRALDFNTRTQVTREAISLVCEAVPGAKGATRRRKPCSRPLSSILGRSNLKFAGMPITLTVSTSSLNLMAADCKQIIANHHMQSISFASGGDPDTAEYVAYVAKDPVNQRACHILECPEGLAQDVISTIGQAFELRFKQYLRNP


Legend:
[1] = molecular target: T1, binding of Shc 1-209 to the EGF receptor; assay: Phosphotyrosine inhibition of Shc 1-209 binding to EGF receptor; conditions: 30 mM phosphotyrosine; results not shown
Excerpt: (§1) Accordingly we examined the binding of the Shc amino terminus (hereafter referred to as Shc 1-209) in further detail. First we determined if the binding of Shc 1-209 was dependent on EGF receptor activation. To perform these studies we generated Shc 1-209 as a GST fusion protein and examined its ability to bind EGF receptor from lysates of NIH 3T3 cells. […] We asked if this binding was dependent on receptor autophosphorylation. EGF receptor was immunoprecipitated from unstimulated cells and then tyrosine-phosphorylated in vitro by adding Mn^2+ and ATP. […] To confirm that the binding was dependent on autophosphorylation, we examined the binding of Shc 1-209 to EGF receptor mutants lacking autophosphorylation sites. […] This may represent a difference in the affinity of interactions or a basic difference in the molecular mechanism of EGF receptor interaction with Shc 1-209 versus SH2 domains.

[2] = molecular target: T2, binding of the Grb7 SH2 domain to EGF receptor (Mus musculus, UniProt Q03160); assay: Phosphotyrosine inhibition of Grb7 SH2 domain binding to EGF receptor; conditions: 30 mM phosphotyrosine; results not shown
T2 construct: made in house; host or cells: bacteria
T2 sequence (Q03160 434-530 limits assumed): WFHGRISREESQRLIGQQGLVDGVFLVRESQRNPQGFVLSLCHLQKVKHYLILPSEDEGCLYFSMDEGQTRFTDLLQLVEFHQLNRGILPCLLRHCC
Excerpt: as §1

EGF receptor = molecular target: T3, EGF receptor (Homo sapiens, UniProt P00533); assay: Binding of GST fusion proteins on glutathione-agarose beads to EGF receptor from HER14 cell lysates, immunoblot; conditions: GST fusion protein, lysates of EGF-stimulated or unstimulated cells
T3 construct: expressed in transfected cells; host or cells: HER14 (NIH 3T3 cells expressing human EGF receptor)
Experimental: FIGS. 2A and 2B. Association of GST-Shc 1-209 with the EGF Receptor (EGFR). A, HER14 lysates from either EGF-stimulated (+) or unstimulated (−) cells (5×10^6 cells) were incubated with 3 μg of GST fusion protein immobilized on glutathione-agarose beads. The bound proteins were washed, subjected to SDS-PAGE, transferred to nitrocellulose and immunoblotted with anti-EGF receptor antibody, anti-C (anti-EGFR). HER14 lysate (4×10^5 cells) was run directly on the gel in lanes 5 and 6. B, unstimulated HER14 lysates (5×10^6 cells) were immunoprecipitated with anti-EGFR antibody (mAb 108). The immobilized receptor was then phosphorylated (+) by the addition of 5 mM MnCl2 and 50 μM ATP or left unphosphorylated (−) by adding MnCl2 alone. Bacterial lysates containing 5 μg of GST, GST-Grb7, and GST-Shc 1-209 were then diluted in 1 ml of 1% Triton X-100 lysis buffer, added to the immobilized receptor and incubated at 4° C. for 90 min. The bound proteins were washed and together with 40 μl of the post-binding supernatant separated by SDS-PAGE and transferred to nitrocellulose. The bound fractions (left panel) and supernatants (right panel) were immunoblotted with anti-GST. FIGS. 4A, 4B, 4C and 4D. Binding of Shc fragments to growth factor receptors. A, schematic diagram illustrating the Shc fragments used in binding studies. Full length murine p52^shc is indicated in (i) while (ii)-(vi) were generated as GST fusion proteins for use in receptor binding studies. B, association of various GST fusion proteins with activated EGF receptor (EGFR). Binding was performed as in FIG. 2A with the exception that all lysates were stimulated with EGF. All studies used 3 μg of fusion proteins except for the Shc SH2 where 10 μg was used. Immunoblotting was performed with anti-phosphotyrosine. C, binding of Shc fusion proteins to NIH 3T3 cells expressing a HER1/2 chimera. This chimera consists of the EGF receptor extracellular binding domain and the intracellular region of HER2/neu. After stimulation of these cells with EGF (200 ng/ml) lysates were prepared and binding as well as blotting studies were performed as in B using anti-phosphotyrosine antibody. D, binding of Shc 1-209 to TrkA. Beads containing 10 μg of GST fusion proteins Shc 1-209, phospholipase C-γ (PLC-γ) SH2 (contains both N and C SH2 domains), or GST alone were added to lysates from 2×10^7 PC12 cells stimulated with 50 ng/ml nerve growth factor (lanes 1, 2, and 4). The binding of the same amount of lysate to 2 μg of anti-TrkA antibody is shown as a positive control and to indicate the position of TrkA on the blot (lane 3). Otherwise, the binding and blotting were performed as in B using anti-phosphotyrosine antibody. […]

[3] = system: HER2/neu (HER1/2 chimera); assay: Binding of GST-Shc fusion proteins to HER1/2 chimera from NIH 3T3 lysates, anti-phosphotyrosine blot; conditions: EGF-stimulated NIH 3T3 lysates
Experimental: FIGS. 4A, 4B, 4C and 4D. Binding of Shc fragments to growth factor receptors. A, schematic diagram illustrating the Shc fragments used in binding studies. Full length murine p52^shc is indicated in (i) while (ii)-(vi) were generated as GST fusion proteins for use in receptor binding studies. B, association of various GST fusion proteins with activated EGF receptor (EGFR). Binding was performed as in FIG. 2A with the exception that all lysates were stimulated with EGF. All studies used 3 μg of fusion proteins except for the Shc SH2 where 10 μg was used. Immunoblotting was performed with anti-phosphotyrosine. C, binding of Shc fusion proteins to NIH 3T3 cells expressing a HER1/2 chimera. This chimera consists of the EGF receptor extracellular binding domain and the intracellular region of HER2/neu. After stimulation of these cells with EGF (200 ng/ml) lysates were prepared and binding as well as blotting studies were performed as in B using anti-phosphotyrosine antibody. D, binding of Shc 1-209 to TrkA. Beads containing 10 μg of GST fusion proteins Shc 1-209, phospholipase C-γ (PLC-γ) SH2 (contains both N and C SH2 domains), or GST alone were added to lysates from 2×10^7 PC12 cells stimulated with 50 ng/ml nerve growth factor (lanes 1, 2, and 4). The binding of the same amount of lysate to 2 μg of anti-TrkA antibody is shown as a positive control and to indicate the position of TrkA on the blot (lane 3). Otherwise, the binding and blotting were performed as in B using anti-phosphotyrosine antibody. […] Protein concentration was determined by SDS-PAGE (polyacrylamide gel electrophoresis) using bovine serum albumin as a standard. […]

Molecule | inhibition of binding of Shc 1-209 to the EGF receptor [1] | inhibition of binding of the Grb7 SH2 domain to the EGF receptor [2] | binding to EGF receptor (EGF receptor) | binding to HER2/neu [3]
N[C@@H](Cc1ccc(OP(=O)(O)O)cc1)C(=O)O [phosphotyrosine] | partially inhibit | completely inhibited |  | 
Shc 85-209: Shc construct with a more severe amino-terminal deletion, GST fusion protein (protein, UniProt P98083 85-209, looked up, fragment, GST fusion, Shc construct with a more severe amino-terminal deletion, GST fusion protein) GKAAEDGEGSAGAALRDSGLLPLLQDMNKLSGGGGRRTRVEGGQLGGEEWTRHGSFVNKPTRGWLHPNDKVMGPGVSYLVRYMGCVEVLQSMRALDFNTRTQVTREAISLVCEAVPGAKGATRRR |  |  | did not bind growth factor receptors | did not bind growth factor receptors
Shc 46-209: amino acids encoding the amino terminus of p46Shc, GST fusion protein (protein, UniProt P98083 46-209, looked up, fragment, GST fusion, amino acids encoding the amino terminus of p46Shc, GST fusion protein) LPPLPGDDSPTTLCSFFPRMSNLKLANPAGGRLGPKGEPGKAAEDGEGSAGAALRDSGLLPLLQDMNKLSGGGGRRTRVEGGQLGGEEWTRHGSFVNKPTRGWLHPNDKVMGPGVSYLVRYMGCVEVLQSMRALDFNTRTQVTREAISLVCEAVPGAKGATRRR |  |  | can bind both EGF receptor and HER2/neu receptor | can bind both EGF receptor and HER2/neu receptor
